From patent US20170101477A1

Experiments:
[1] = biological target: human LEPR CRH1 (D1)-MMH (human) (UniProt P48357); test: Luminex, myc-captured LEPR protein
[2] = biological target: human LEPR CRH2-MMH (human) (UniProt P48357); test: Luminex, myc-captured LEPR protein
[3] = biological target: human LEPR CRH1 (D1,D2)-MMH (human) (UniProt P48357); test: Luminex, myc-captured LEPR protein
[4] = biological target: human LEPR Ig (D3)-MMH (human) (UniProt P48357); test: Luminex, myc-captured LEPR protein
[5] = biological target: human LEPR extracellular domain expressed with a C-terminal myc-myc-hexahistidine tag (hLEPR.mmh) (human) (UniProt P48357); test: Luminex, myc-captured LEPR protein
human LEPR extracellular domain expressed with a C-terminal myc-myc-hexahistidine tag (hLEPR.mmh) (human), sequence (P48357 other isoform, or with tags, fused parts or gaps): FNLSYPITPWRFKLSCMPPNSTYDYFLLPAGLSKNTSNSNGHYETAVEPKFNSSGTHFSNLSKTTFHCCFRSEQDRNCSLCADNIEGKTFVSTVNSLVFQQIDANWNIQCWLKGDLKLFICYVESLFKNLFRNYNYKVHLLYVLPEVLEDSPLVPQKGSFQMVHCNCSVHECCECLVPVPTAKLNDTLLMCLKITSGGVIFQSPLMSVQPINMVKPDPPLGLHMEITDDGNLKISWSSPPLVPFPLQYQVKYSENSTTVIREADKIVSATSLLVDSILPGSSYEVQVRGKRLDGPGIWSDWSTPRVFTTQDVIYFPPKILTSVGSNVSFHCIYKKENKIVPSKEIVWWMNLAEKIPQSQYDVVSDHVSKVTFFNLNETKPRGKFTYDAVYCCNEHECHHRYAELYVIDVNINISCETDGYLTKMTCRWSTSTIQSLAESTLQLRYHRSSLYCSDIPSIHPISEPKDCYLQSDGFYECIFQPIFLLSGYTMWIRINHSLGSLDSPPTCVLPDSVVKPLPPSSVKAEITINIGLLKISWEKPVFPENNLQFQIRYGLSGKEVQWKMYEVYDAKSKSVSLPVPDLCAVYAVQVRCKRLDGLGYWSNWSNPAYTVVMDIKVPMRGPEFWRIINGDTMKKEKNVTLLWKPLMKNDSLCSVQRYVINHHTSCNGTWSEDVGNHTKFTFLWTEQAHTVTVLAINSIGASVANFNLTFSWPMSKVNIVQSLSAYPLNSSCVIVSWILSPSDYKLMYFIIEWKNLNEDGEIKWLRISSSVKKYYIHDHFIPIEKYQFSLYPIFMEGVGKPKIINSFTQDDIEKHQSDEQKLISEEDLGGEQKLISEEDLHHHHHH

[6] = biological target: human LEPR CRH1 (D1,D2,D3)-MMH (human) (UniProt P48357); test: Luminex, myc-captured LEPR protein
[7] = biological target: human LEPR CRH1-Ig (D2,D3)-MMH (human) (UniProt P48357); test: Luminex, myc-captured LEPR protein
[8] = biological target: human LEPR FNIII-MMH (human) (UniProt P48357); test: Luminex, myc-captured LEPR protein
[9] = biological target: human LEPR Ig-CRH2-FNIII-MMH (human) (UniProt P48357); test: Luminex, myc-captured LEPR protein
[10] = biological target: extracellular domain portion of LEPR protein expressed with a C-terminal human Fc tag (hLEPR.hFc) (human); test: ELISA, 500 nM Ab, 10 nM hLEPR.hFc to coated hLeptin
extracellular domain portion of LEPR protein expressed with a C-terminal human Fc tag (hLEPR.hFc) (human), sequence (chain, as listed by the source limits assumed): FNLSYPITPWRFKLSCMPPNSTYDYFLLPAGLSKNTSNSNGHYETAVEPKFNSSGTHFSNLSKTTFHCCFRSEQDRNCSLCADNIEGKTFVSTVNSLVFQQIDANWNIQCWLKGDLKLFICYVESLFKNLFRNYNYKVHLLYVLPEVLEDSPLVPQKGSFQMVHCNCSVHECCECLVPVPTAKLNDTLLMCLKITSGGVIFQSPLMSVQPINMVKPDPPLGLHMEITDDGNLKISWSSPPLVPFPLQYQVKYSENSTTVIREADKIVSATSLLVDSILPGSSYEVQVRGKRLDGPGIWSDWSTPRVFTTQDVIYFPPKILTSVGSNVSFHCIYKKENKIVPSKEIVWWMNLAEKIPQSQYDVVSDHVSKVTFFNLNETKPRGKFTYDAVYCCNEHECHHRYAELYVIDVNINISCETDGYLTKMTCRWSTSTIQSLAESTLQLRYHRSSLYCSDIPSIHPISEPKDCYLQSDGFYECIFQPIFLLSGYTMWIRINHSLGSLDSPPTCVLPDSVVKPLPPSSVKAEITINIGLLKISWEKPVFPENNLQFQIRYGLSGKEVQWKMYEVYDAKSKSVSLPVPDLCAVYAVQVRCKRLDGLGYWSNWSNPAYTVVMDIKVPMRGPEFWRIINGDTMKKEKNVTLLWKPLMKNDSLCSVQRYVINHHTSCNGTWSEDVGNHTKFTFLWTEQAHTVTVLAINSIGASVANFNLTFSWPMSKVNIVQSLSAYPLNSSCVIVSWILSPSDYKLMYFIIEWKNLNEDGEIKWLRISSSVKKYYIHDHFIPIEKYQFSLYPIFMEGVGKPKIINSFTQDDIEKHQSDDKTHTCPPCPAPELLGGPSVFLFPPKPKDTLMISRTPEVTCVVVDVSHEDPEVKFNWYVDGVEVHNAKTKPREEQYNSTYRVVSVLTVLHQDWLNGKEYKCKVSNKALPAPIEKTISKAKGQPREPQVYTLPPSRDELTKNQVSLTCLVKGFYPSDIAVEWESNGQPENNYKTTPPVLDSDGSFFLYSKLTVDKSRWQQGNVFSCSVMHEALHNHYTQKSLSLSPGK

[11] = biological target: Mycx2-hLepR(ecto)-GPI anchored, on HEK293/hLEPR-GPI cells (human) (UniProt P48357); test: FACS, 10 nM Ab, HEK293/hLEPR-GPI, 1 uM Leptin
Mycx2-hLepR(ecto)-GPI anchored, on HEK293/hLEPR-GPI cells (human), sequence (P48357 22-839): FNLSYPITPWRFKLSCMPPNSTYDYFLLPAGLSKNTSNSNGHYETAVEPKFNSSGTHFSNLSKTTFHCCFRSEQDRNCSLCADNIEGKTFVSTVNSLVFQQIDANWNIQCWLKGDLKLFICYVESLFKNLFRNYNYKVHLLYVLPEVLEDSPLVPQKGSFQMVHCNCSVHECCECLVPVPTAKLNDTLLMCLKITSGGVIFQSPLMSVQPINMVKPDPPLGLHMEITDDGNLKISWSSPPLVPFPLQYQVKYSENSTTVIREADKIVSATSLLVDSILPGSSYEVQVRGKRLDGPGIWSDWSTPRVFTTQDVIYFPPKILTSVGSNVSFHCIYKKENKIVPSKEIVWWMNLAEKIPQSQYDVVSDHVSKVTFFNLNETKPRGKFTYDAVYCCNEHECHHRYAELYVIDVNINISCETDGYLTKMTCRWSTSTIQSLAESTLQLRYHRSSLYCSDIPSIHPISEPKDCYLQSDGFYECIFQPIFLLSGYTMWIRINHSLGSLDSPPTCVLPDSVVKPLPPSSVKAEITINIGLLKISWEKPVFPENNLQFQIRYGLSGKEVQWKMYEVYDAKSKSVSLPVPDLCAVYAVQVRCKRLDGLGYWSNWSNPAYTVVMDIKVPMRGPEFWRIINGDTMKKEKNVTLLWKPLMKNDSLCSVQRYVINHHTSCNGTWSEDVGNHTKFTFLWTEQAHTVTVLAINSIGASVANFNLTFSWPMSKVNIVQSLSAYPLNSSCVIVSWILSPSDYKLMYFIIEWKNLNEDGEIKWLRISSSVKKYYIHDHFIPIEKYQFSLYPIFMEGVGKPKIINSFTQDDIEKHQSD

[12] = biological target: Mycx2-hLepR(ecto)-GPI anchored, on HEK293/hLEPR-GPI cells (human) (UniProt P48357); test: FACS, 10 nM Ab, HEK293/hLEPR-GPI, no added Leptin
[13] = biological target: Mycx2-hLepR(ecto)-GPI anchored, on HEK293/hLEPR-GPI cells (human) (UniProt P48357); test: FACS, 70 nM Ab, HEK293/hLEPR-GPI
[14] = biological target: full length human LEPR (amino acids 1-1165 of P48357, Isoform B), on cells (human) (UniProt P48357); test: FACS, 70 nM Ab, HEK293/Stat3-luc/hLEPR-FL
[15] = biological target: macaca fascicularis LEPR extracellular domain expressed with a C-terminal myc-myc-hexahistidine tag (mfLEPR.mmh) (Macaca fascicularis); test: SPR, mAb captured, 37C
macaca fascicularis LEPR extracellular domain expressed with a C-terminal myc-myc-hexahistidine tag (mfLEPR.mmh) (Macaca fascicularis), sequence (Q9MYL0 other isoform, or with tags, fused parts or gaps): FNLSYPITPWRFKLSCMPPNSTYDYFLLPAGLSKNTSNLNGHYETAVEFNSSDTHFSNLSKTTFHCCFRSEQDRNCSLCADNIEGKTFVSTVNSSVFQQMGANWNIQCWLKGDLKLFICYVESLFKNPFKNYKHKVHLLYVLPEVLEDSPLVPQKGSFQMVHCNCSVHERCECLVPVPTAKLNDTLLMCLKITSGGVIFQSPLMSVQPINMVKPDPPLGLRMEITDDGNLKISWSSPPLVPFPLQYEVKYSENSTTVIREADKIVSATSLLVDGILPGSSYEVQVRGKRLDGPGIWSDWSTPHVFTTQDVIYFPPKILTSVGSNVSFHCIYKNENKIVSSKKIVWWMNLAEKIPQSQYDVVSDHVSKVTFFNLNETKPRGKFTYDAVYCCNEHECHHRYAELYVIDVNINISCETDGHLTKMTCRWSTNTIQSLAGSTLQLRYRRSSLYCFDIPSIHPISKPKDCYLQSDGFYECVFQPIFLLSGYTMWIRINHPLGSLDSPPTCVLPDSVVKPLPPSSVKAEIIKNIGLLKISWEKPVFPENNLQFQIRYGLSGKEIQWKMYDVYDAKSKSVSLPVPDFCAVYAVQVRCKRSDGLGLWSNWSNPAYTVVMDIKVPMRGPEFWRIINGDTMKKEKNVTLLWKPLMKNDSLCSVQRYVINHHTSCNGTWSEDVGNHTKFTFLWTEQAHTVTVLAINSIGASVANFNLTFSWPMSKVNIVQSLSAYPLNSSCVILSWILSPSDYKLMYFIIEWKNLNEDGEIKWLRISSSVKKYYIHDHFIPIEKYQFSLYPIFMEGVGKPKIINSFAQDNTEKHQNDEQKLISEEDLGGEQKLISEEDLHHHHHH

[16] = biological target: human LEPR extracellular domain expressed with a C-terminal myc-myc-hexahistidine tag (hLEPR.mmh) (human) (UniProt P48357); test: SPR, mAb captured, 37C
[17] = biological target: human LEPR extracellular domain expressed with a C-terminal mouse IgG2a Fc tag (hLEPR.mFc) (human); test: SPR, mAb captured, 37C
human LEPR extracellular domain expressed with a C-terminal mouse IgG2a Fc tag (hLEPR.mFc) (human), sequence (chain, as listed by the source limits assumed): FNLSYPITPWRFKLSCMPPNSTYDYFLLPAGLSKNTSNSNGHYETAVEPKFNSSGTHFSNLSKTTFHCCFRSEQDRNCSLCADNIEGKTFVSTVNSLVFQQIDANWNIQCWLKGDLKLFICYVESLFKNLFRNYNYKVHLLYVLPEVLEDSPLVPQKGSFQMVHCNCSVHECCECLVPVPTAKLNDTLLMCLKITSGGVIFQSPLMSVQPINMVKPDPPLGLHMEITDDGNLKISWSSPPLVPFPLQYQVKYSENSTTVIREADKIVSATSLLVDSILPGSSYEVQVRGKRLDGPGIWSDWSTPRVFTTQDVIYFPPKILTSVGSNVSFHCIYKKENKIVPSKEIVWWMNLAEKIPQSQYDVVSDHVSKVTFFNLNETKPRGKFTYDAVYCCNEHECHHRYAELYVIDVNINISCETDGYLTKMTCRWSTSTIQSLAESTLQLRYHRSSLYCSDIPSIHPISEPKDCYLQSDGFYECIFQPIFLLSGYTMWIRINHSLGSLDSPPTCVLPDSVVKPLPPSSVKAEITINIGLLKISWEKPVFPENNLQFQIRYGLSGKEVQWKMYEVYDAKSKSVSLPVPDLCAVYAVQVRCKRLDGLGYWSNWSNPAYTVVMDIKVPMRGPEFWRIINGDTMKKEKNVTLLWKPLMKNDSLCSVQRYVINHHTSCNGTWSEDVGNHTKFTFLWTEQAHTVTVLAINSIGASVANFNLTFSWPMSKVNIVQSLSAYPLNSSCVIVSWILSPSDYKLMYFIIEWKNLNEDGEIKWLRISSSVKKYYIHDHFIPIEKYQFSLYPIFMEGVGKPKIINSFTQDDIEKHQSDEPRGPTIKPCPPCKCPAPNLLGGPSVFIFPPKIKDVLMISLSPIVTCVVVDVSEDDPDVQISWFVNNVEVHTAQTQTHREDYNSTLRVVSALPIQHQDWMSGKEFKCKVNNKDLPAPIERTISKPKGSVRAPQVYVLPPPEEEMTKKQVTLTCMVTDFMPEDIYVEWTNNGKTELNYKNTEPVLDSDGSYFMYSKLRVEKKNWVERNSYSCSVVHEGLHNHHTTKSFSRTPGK

[18] = biological target: macaca fascicularis LEPR extracellular domain expressed with a C-terminal myc-myc-hexahistidine tag (mfLEPR.mmh) (Macaca fascicularis); test: SPR, mAb captured, 25C
[19] = biological target: human LEPR extracellular domain expressed with a C-terminal myc-myc-hexahistidine tag (hLEPR.mmh) (human) (UniProt P48357); test: SPR, mAb captured, 25C
[20] = biological target: human LEPR extracellular domain expressed with a C-terminal mouse IgG2a Fc tag (hLEPR.mFc) (human); test: SPR, mAb captured, 25C

human LEPR CRH1 (D1,D2)-MMH (human), sequence (P48357 22-339 limits assumed): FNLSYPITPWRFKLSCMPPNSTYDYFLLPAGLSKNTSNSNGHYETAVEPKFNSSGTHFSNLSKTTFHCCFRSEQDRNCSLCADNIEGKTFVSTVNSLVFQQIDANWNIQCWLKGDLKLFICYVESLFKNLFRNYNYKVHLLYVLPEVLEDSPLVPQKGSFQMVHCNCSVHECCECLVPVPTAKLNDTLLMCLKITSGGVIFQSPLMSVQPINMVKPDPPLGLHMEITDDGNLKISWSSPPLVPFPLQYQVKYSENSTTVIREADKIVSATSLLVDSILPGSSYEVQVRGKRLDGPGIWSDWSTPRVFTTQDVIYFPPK

Luminex MFI [1] [MFI] | Luminex MFI [2] [MFI] | Luminex MFI [3] [MFI] | Luminex MFI [4] [MFI] | Luminex MFI [5] [MFI] | Luminex MFI [6] [MFI] | Luminex MFI [7] [MFI] | Luminex MFI [8] [MFI] | Luminex MFI [9] [MFI] | % blockade [10] [%] | Binding Ratio [11] [fold] | Binding Ratio [12] [fold] | Binding Ratio [13] [fold] | Binding Ratio [14] [fold] | 100 nM mfLEPR.MMH Bound (RU) [15] [RU] | 100 nM hLEPR-MMH Bound (RU) [16] [RU] | 100 nM hLEPR-mFc Bound (RU) [17] [RU] | 100 nM mfLEPR.MMH Bound (RU) [18] [RU] | 100 nM hLEPR-MMH Bound (RU) [19] [RU] | 100 nM hLEPR-mFc Bound (RU) [20] [RU] | Substance
-14 | 9400 | 19 | 10 | 3910 | -57 | 27 | 73 | 7110 | 99 | 112 | 2350 |  |  |  |  |  |  |  |  | Comparator mAb (Fab9F8 described in Fazeli et al. 2006 and Carpenter et al. 2012) (antibody)
 |  |  |  |  |  |  |  |  | -3 | 4 | 6 | 2 | 2 | 1 | 6 | 1 | 0 | 4 | -2 | Isotype Control mAb (antibody)
 |  |  |  |  |  |  |  |  | 32 |  |  |  |  |  |  |  |  |  |  | Mouse IgG2a Isotype control (antibody)
